Assay results as given in the RNAGym collection of RNA variant scans (doi:10.1073/pnas.2313332121).

B1: TPR t1 (parent)
chain: GACCAAUCUGCCCUCAGAGCUCGAGAACAUCUUCGGAUGCAGAGGAGGCAGGCUUCGGUGGCGCGAUAGCGCCAACGUCCUCAACCUCCAAUGCAUCCCACCACAUGAUGAUGCCUGAAGAGCCUUGGUUUUUUG

Variants of: B1
Assay: polymerase ribozyme fitness, log enrichment relative to wild type (log ratio); higher = more active; in vitro selection for triplet polymerase activity
How it was run: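 Mutant libraries for each subunit of a heterodimeric triplet polymerase ribozyme were made by PCR and then transcribed. Each library underwent one round of in vitro selection in triplicate: annealing with a biotinylated primer, the partner subunit and triplets, frozen incubation at −7 °C, gel excision of extended constructs, streptavidin-bead capture and RT-PCR. Input and output libraries were Illumina-sequenced, and only genotypes with ≥10 input reads and ≥1 read per output were kept. Fitness is the logarithm, base 2, of genotype enrichment over wild-type enrichment, computed from inverse-variance-weighted replicate averages.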

| Variant | polymerase ribozyme fitness (log ratio) |
| --- | --- |
| A111C A121C | -0.386 |
| A111U A121C U126A U130G | -2.89 |
| A111C A119U U125A | -4.12 |
| G110U U116A | -3.44 |
| C114U A121U | -1.32 |
| G110C G122C | -5.25 |
| G113U G120C | -1.71 |
| G110U C115A U129C | -3.17 |
| U112A G122U U129C | 0.27 |
| A111C G117A | -2 |
| G113U U132A | -2.22 |
| C114A G117C | -4.77 |
| G110U A118G | -1.01 |
| G110A | -0.79 |
| G110U | -1.08 |
| G110C | -3.75 |
| U112G U133G | -0.442 |
| U112A C124U | 1.1 |
| U112C C124U | 1.58 |
| G110C U112G | -4.99 |
| U112G U130C | 0.265 |
| G113A C114G | -1.96 |
| C114A C115G G122C G127U | -5.32 |
| C114A A119G C124G | 0.223 |

| Variant | polymerase ribozyme fitness (log ratio) |
| --- | --- |
| U112C C124U G128U | -0.524 |
| G113C G135U | -4.15 |
| G110U U112A | -2.85 |
| G110U U112G | -4.22 |
| U112A C123G | 0.872 |
| U112A C123U | 1.03 |
| G110C A119U | -1.71 |
| C114A G135U | -1.88 |
| G113A C123G U129A | -1.16 |
| C114U C124G | -0.85 |
| A111U U132A | -2.14 |
| C114A U133G | -1.84 |
| C114U A119C | -6.28 |
| G113U G117A | -5.13 |
| G113U U131C | -3.4 |
| G110A U125A | -2.43 |
| G113U C114G | -2.89 |
| U112G G122A | -1.74 |
| U109G G120A | -4.17 |
| A111G U133G | -0.431 |
| G110A U129C | -1.47 |
| G110C A111G | -5.74 |
| U112C G127A | 0.907 |
| U112G G128U | -2.4 |

| Variant | polymerase ribozyme fitness (log ratio) |
| --- | --- |
| C114U C123A | -1.94 |
| G110U A119U | -1.65 |
| G113A A121G | -0.104 |
| G113A U126C | -0.83 |
| G110A C124A | -0.401 |
| G110A C124U | -0.567 |
| G113A G128U | -2.37 |
| U112A U133G | 1.43 |
| U112A U133A | 1.53 |
| C114G G128A U130A | -5.53 |
| G110A C115G | -5.71 |
| U112A G113U | -0.351 |
| A111C C115A | -3.19 |
| C114G U126G | -4.32 |
| G113C C123A | -2.82 |
| G113A G120C | -1.02 |
| G113U G128C | -4.63 |
| G113U G128A | -3.35 |
| G113U G128U | -4.72 |
| C114G C124A G135A | -0.373 |
| G110C G113A | -6.42 |
| G113U G122C C123A | -2.42 |
| G113C U116A | -4.45 |
| G113C U116G | -3.72 |

| Variant | polymerase ribozyme fitness (log ratio) |
| --- | --- |
| G113A U132C | -1.76 |
| G110C C123G | -4.09 |
| G113C U125A | -3.4 |
| U112C G120C | 0.72 |
| U112C C124A G128A | 0.254 |
| A111C G128A | -1.07 |
| G110C G127U | -2.52 |
| C114A G127U | -3.82 |
| U112C G128U | -0.242 |
| C114U G117U | -5.77 |
| A111C U129G | -0.988 |
| A111U A121U U129A G135C | -2.04 |
| A111G G117U | -4.12 |
| A111G G117A | -1.65 |
| G113A G117A | -4.4 |
| A111G U112A | -2.9 |
| G113U G127U | -4.46 |
| G113U G127C | -1.61 |
| C114A C123U G128U | -4.41 |
| G113A U116A | -4.71 |
| A111C U112A C123G | -0.191 |
| U112C G135U | -0.0479 |
| U112A C115G | -0.927 |
| U112G C123U | 0.561 |

| Variant | polymerase ribozyme fitness (log ratio) |
| --- | --- |
| U112G C123G | 0.429 |
| G113U G120C G128U | -4.07 |
| G113U G135U | -3.24 |
| G113C C124G | -1.33 |
| G110U G120C G127A G128U | -4.38 |
| A111C A119C G127U | -2.96 |
| G113C C115A | -4.21 |
| G110C G135C | -4.01 |
| C114G G117A G135U | -6.72 |
| G113C U116G U130G | -5.3 |
| U112A A119C | -1.25 |
| G110U G127A | -2.05 |
| G110U G127U | -1.57 |
| U112A G128U U131C | 1.17 |
| G113A C123G | -0.469 |
| G113C U129A | -3.5 |
| G113U C123U | -3.05 |
| G113U C123G | -1.81 |
| G113A U129G | -1.7 |
| A111U G120A | -3.85 |
| A111U G120U | -4.5 |
| G110C U125A | -5.11 |
| A111U G113A U130G | -5.85 |
| A111C G113A | -3.44 |

| Variant | polymerase ribozyme fitness (log ratio) |
| --- | --- |
| C114G C123U | -4.31 |
| C114G C123A | -1.74 |
| A111C U112A | -1.52 |
| G110U U133C | 0.02 |
| G113C U116G C124A | -5.98 |
| C114G G120U | -3.34 |
| C114U G117C U133A | -5.74 |
| G110C U132A | -3.46 |
| C114A G117U C124U | -6.08 |
| A111C C114A | -2.98 |
| G110U G117A | -2.69 |
| G110U G117U | -4.2 |
| A111G U116G C124A U131G | -1.23 |
| A111U U116C | -4.01 |
| G113A U125A | -1.24 |
| G110U G120A | -2.47 |
| G110C U130G | -6.34 |
| G113U G122C | -2.73 |
| C114G U130A | -2.22 |
| A111G U130G | -0.2 |
| G110U G122U | -2.07 |
| G110U G122A | -2.47 |
| U112A C114G | -0.0146 |
| G110A U133A | -1.59 |

| Variant | polymerase ribozyme fitness (log ratio) |
| --- | --- |
| C114U G120U | -2.8 |
| G110C G120C | -4.2 |
| G113U C124U | -2.48 |
| A111G C115U | -2.28 |
| U112G A121U | 0.924 |
| U112A U126C | 0.739 |
| U112A U126G | 0.0604 |
| C114G U130G U133A | -2.19 |
| C114A A119G | 0.218 |
| G110A G113C | -4.78 |
| A111G A121C | 0.741 |
| U112G C115A U126G | -2.63 |
| G110C U131C G135A | -2.51 |
| G110A C114A | -6.15 |
| G110A C114G | -6.64 |
| G110U A111G G113C | -2.46 |
| C114U A118U | -3.68 |
| U112C U125A | 1.63 |
| G110A U116G | -3.5 |
| G110C C114U | -4.33 |
| G113A C124G | -0.302 |
| G113A C124U | -0.971 |
| G113A C124A | -1.44 |
